Numbering of substitutions follows the chain as printed. Numbers in names are those of the source.
Target: T1, wild-type (WT) Kir2.1 subunit (human, UniProt P63252 1-427)
T1 sequence: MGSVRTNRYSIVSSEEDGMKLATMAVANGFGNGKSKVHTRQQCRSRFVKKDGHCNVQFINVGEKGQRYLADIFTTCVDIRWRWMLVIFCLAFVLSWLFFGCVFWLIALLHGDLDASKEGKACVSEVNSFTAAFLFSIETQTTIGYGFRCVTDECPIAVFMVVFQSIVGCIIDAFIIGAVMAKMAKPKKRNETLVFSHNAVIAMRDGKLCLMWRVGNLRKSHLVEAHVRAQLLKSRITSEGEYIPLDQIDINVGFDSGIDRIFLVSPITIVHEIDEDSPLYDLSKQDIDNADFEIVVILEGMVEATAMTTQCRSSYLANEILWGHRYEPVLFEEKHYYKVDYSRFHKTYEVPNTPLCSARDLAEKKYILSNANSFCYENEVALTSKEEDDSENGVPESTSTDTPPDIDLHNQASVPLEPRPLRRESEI
Experiment: cell-based or functional assay

B1: D71V Kir2.1 mutant subunit (other)
chain: T1 sequence with D71V
- Reduction in current on co-expression of WT and D71V subunits, relative to WT current: ~0.938 fraction of WT current
